T1: ADAMTS7-T8 (human, UniProt Q9UKP4 237-1630)
T1 construct: signal peptide in the construct; human ADAMTS7 cDNA including the native signal peptide, truncated after Pro-1630 (T8); The construct is made as a zymogen; The stated enzyme concentrations are active protease, found by active-site titration with TIMP-4; also called purified ADAMTS7-T8; source: HEK cells stably expressing ADAMTS7-T8, conditioned medium, purified (anion exchange chromatography, gel …)
T1 sequence (looked up): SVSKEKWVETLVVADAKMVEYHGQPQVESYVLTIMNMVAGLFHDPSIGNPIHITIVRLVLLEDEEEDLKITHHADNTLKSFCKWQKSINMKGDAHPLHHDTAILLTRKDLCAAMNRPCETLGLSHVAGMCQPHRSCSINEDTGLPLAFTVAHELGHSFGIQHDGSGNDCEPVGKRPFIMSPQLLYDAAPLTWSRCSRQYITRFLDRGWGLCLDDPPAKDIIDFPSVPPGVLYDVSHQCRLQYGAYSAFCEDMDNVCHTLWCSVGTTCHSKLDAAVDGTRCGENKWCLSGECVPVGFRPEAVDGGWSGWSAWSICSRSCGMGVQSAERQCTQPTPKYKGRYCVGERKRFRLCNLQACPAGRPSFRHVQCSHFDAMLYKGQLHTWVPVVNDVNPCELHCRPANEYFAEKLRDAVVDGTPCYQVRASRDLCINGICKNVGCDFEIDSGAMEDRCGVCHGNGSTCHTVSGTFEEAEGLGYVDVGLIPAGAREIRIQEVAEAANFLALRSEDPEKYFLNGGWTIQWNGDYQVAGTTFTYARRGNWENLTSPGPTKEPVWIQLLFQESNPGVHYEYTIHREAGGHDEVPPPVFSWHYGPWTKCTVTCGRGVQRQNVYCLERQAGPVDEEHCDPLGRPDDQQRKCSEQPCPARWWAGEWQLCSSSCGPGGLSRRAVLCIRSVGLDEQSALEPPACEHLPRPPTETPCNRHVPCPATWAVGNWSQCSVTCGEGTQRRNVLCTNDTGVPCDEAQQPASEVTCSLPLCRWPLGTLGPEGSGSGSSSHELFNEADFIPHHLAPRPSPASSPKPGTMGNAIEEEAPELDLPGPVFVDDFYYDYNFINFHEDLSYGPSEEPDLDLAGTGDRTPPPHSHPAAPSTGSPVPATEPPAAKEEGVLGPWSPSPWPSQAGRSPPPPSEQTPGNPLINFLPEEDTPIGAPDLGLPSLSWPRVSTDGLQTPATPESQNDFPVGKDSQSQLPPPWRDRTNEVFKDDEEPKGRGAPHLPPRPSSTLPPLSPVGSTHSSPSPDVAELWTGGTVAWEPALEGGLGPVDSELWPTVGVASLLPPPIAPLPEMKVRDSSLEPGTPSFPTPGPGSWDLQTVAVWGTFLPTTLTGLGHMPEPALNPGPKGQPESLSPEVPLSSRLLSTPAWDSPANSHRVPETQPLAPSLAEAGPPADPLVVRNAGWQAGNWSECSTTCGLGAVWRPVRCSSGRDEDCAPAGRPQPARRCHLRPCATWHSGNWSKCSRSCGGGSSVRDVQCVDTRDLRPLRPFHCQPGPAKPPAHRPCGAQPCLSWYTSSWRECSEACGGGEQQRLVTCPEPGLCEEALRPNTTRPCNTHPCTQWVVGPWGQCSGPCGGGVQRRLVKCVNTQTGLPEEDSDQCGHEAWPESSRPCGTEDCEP


Target: T1, ADAMTS7-T8
Test: enzyme inhibition assay (densitometry of LTBP4S-A cleavage on SDS-PAGE/Coomassie Blue); apparent Ki; TIMP (1.75-60 nM) pre-incubated with ADAMTS7-T8 for 1 h at 37 °C, then 18 nM ADAMTS7 and 10 μM LTBP4S-A for 17 h at 37 °C; 20 mM Tris, pH 7.5, 150 mM NaCl, 10 mM CaCl2
Details: both partners purified

Row | Ki [nM] | Binder
1 | 13 | TIMP-4 (natural protein, human, UniProt Q99727 30-224, looked up, recombinant human TIMP-4 (R&D Systems); No catalogue number or tags are stated; source: bought: R&D Systems (recombinant human)) CSCAPAHPQQHICHSALVIRAKISSEKVVPASADPADTEKMLRYEIKQIKMFKGFEKVKDVQYIYTPFDSSLCGVKLEANSQKQYLLTGQVLSDGKVFIHLCNYIEPWEDLSLVQRESLNHHYHLNCGCQITTCYTVPCTISAPNECLWTDWLLERKLYGYQAQHYVCMKHVDGTCSWYRGHLPLRKEFVDIVQP
2 | 49 | TIMP-3 (natural protein, human, UniProt P35625 24-211, looked up, recombinant human TIMP-3 (R&D Systems); No catalogue number or tags are stated; source: bought: R&D Systems (recombinant human)) CTCSPSHPQDAFCNSDIVIRAKVVGKKLVKEGPFGTLVYTIKQMKMYRGFTKMPHVQYIHTEASESLCGLKLEVNKYQYLLTGRVYDGKMYTGLCNFVERWDQLTLSQRKGLNYRYHLGCNCKIKSCYYLPCFVTSKNECLWTDMLSNFGYPGYQSKHYACIRQKGGYCSWYRGWAPPDKSIINATDP
